{
  "source": "patent US9404925B2",
  "about": "“Cancer antigen and use thereof” (MEDINET CO., LTD., priority 2002, dated 2016)",
  "key": {"[1]": {"system": "Colon-26", "assay": "In vivo antitumor activity of mouse Th induced by hsp105, local injection into Colon-26 tumor", "parameters": "species or system BALB/c mouse", "settings": "tumor with a size of 3 mm, FIG. 6D", "procedure": "(§1) The spleen of a BALB/c mouse was collected and ground to separate spleen cells. 200,000 spleen cells per well on a 96-well flat plate were cultured in 200 μl of a culture solution containing IL-2 (100 IU/ml) and a 2 μg/ml recombinant hsp105 protein for 1 week. Thereafter, every week, the culture product was repeatedly stimulated with 200,000 spleen cells, which had been pulsed with a 2 μg/ml recombinant hsp105 protein and then exposed to radioactive rays, so as to establish multiple CD4 positive helper T cell lines (Th). The expression of CD4 and CD8 on the surface of cells was confirmed by performing immunofluorescent staining with Monoclonal Antibody MOUSE CD4-FITC, CD8-FITC (IMMUNOTECH, Marseille, France), and then analyzed with FACS (FIG. 6A). It was examined by the intake of [^3H] thymidine, whether or not Th specifically reacts with the hsp105 protein and grows. Specifically, 150,000 spleen cells were placed in each well of a 96-well flat plate, and several wells were pulsed with the hsp105 protein overnight, and the other wells were not pulsed therewith. […] Thereafter, the intake of [^3H] thymidine was measured with a liquid scintillation counter. […] Thus, IFN-γ and IL-4 secreted from Th as a result of the reaction were measured with Mouse IFN-γ, IL-4 ELISA Ready-SET-Go! […]"}, "[2]": {"system": "CD4 positive helper T cell lines (Th)", "assay": "IFN-γ and IL-4 ELISA of colon cancer patient Th induced by hsp105", "format": "cell-based, human", "settings": "FIG. 7B", "procedure": "as §1, with “6A).” for “6A). It was examined by the intake of [^3H] thymidine, whether or not Th specifically reacts with the hsp105 protein and grows. Specifically, 150,000 spleen cells were placed in each well of a 96-well flat plate, and several wells were pulsed with the hsp105 protein overnight, and the other wells were not pulsed therewith.”\n(§2) Monocytes were separated from the peripheral blood. […] The expression of CD4 and CD8 on the surface of cells was confirmed by performing immunofluorescent staining using Pharmingen anti-human CD4, CD8-FITC, and then analyzed with FACS. […] In addition, in the same manner as in Example 7, IFN-γ and IL-4 secreted from Th as a result of the reaction were measured using Human IFN-γ, IL-4 US ELISA Kit (BIOSOURCE, Camarillo, Calif.). […]"}, "[3]": {"system": "CD4 positive helper T cell lines (Th)", "assay": "[3H] thymidine intake of mouse CD4 positive helper T cell line induced by hsp105", "format": "cell-based, BALB/c mouse", "settings": "spleen cells pulsed with hsp105 protein, 72 hours, FIG. 6B", "procedure": "as §1"}, "[4]": {"system": "CD4 positive helper T cell lines (Th)", "assay": "[3H] thymidine intake of CD4 positive helper T cell line of colon cancer patient induced by hsp105", "format": "cell-based, human", "settings": "FIG. 7A", "procedure": "as §1, with “6A).” for “6A). It was examined by the intake of [^3H] thymidine, whether or not Th specifically reacts with the hsp105 protein and grows. Specifically, 150,000 spleen cells were placed in each well of a 96-well flat plate, and several wells were pulsed with the hsp105 protein overnight, and the other wells were not pulsed therewith.”\nas §2"}, "[5]": {"system": "CD4 positive helper T cell lines (Th)", "assay": "IFN-γ and IL-4 ELISA of mouse Th induced by hsp105", "format": "cell-based, BALB/c mouse", "settings": "supernatant 24 hours after addition of Th, FIG. 6C", "procedure": "as §1"}},
  "data": [
    {"molecule": "hsp105 protein: recombinant hsp105 protein, heat shock protein cancer antigen (SEQ ID NO: 1), used to induce CD4 positive helper T cell lines (protein, listed as Homo sapiens) MSVVGLDVGSQSCYIAVARAGGIETIANEFSDRCTPSVISFGSKNRTIGVAAKNQQITHANNTVSNFKRFHGRAFNDPFIQKEKENLSYDLVPLKNGGVGIKVMYMGEEHLFSVEQITAMLLTKLKETAENSLKKPVTDCVISVPSFFTDAERRSVLDAAQIVGLNCLRLMNDMTAVALNYGIYKQDLPSLDEKPRIVVFVDMGHSAFQVSACAFNKGKLKVLGTAFDPFLGGKNFDEKLVEHFCAEFKTKYKLDAKSKIRALLRLYQECEKLKKLMSSNSTDLPLNIECFMNDKDVSGKMNRSQFEELCAELLQKIEVPLYSLLEQTHLKVEDVSAVEIVGGATRIPAVKERIAKFFGKDISTTLNADEAVARGCALQCAILSPAFKVREFSVTDAVPFPISLIWNHDSEDTEGVHEVFSRNHAAPFSKVLTFLRRGPFELEAFYSDPQGVPYPEAKIGRFVVQNVSAQKDGEKSRVKVKVRVNTHGIFTISTASMVEKVPTEENEMSSEADMECLNQRPPENPDTDKNVQQDNSEAGTQPQVQTDAQQTSQSPPSPELTSEENKIPDADKANEKKVDQPPEAKKPKIKVVNVELPIEANLVWQLGKDLLNMYIETEGKMIMQDKLEKERNDAKNAVEEYVYEFRDKLCGPYEKFICEQDHQNFLRLLTETEDWLYEEGEDQAKQAYVDKLEELMKIGTPVKVRFQEAEERPKMFEELGQRLQHYAKIAADFRNKDEKYNHIDESEMKKVEKSVNEVMEWMNNVMNAQAKKSLDQDPVVRAQEIKTKIKELNNTCEPVVTQPKPKIESPKLERTPNGPNIDKKEEDLEDKNNFGAEPPHQNGECYPNEKNSVNMDLD", "values": [
      {"measurement": "growth of Colon-26 tumor after local injection of Th", "setting": "[1]", "value": "clearly retarded"},
      {"measurement": "IFN-γ and IL-4 secreted from Th", "setting": "[2]", "value": "generates a large amount of IFN-γ"},
      {"measurement": "hsp105 protein-specific growth of Th ([3H] thymidine intake)", "setting": "[3]", "value": "specifically reacted with the hsp105 protein and grew"},
      {"measurement": "hsp105 protein-specific growth of Th ([3H] thymidine intake)", "setting": "[4]", "value": "specifically reacted with the hsp105 protein and grew"},
      {"measurement": "IFN-γ and IL-4 secreted from Th", "setting": "[5]", "value": "generates a large amount of IFN-γ"}
    ]}
  ]
}
